Reference: paper PMC3436176

Molecular target: III-30A (human)
Test: ELISA

Chain of GPVIex (recombinant extracellular domain of GPVI) (Q9HCN6 21-214): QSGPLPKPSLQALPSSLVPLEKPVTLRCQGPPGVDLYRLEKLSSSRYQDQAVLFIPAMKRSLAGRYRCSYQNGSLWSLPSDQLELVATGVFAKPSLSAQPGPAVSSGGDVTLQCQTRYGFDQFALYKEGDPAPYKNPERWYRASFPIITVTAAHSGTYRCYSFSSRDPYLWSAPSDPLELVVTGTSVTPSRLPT

## GPVIex (recombinant extracellular domain of GPVI) (from UniProt Q9HCN6 21-214) (domain or fragment)
  Kd: 10.2 µM
